# In patent publication US20210317211A1 (published 2021):
# T1: human TREM2 over-expressed on Expi 293 cells (human, UniProt Q9NZC2 19-230)
# T1 construct: also called Expi-hTREM2; hTREM2
# T1 sequence: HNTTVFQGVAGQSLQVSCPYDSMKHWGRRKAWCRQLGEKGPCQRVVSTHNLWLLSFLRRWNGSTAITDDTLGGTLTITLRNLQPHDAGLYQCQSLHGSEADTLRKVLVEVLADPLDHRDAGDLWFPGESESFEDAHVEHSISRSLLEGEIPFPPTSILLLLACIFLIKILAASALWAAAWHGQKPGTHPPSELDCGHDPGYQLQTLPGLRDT
# T2: mouse TREM2 over-expressed on Expi 293 cells (mouse, UniProt Q99NH8 19-227)
# T2 construct: also called Expi-mTREM2; mTREM2
# T2 sequence: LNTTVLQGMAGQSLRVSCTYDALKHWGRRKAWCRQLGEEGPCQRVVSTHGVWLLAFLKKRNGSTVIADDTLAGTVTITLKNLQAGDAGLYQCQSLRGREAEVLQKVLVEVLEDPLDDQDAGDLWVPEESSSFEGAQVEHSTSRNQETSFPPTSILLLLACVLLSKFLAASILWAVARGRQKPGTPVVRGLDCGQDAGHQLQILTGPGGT
# Columns and labels:
# [1] = target: T1, human TREM2 over-expressed on Expi 293 …; test: flow cytometry on Expi 293 cells over-expressing human TREM2; Alexa Fluor 647 secondary antibody
# Description: (§1) 100,000 to 500,000 Expi 293 parental cells or Expi 293 cells over-expressing human or mouse TREM2 were plated in […] well plates and dead cells were stained with Zombie Near Infrared (Biolegend). Titrations of indicated unconjugated antibodies were incubated with these cells within a range of 0 ug/ml to 10 ug/ml in a 1:3 dilution range across 8-10 points. Dependent on their isotype (higG1 or mIgG2a), these primary unconjugated antibodies were detected with Alexa Fluor 647 conjugated anti-human Fc or anti-mouse Fc secondary antibodies (Jackson Immunoresearch). Alexa Fluor 647 signal was measured by flow cytometry (BD Fortessa X-14, BD Biosciences). EC50 values were calculated by curve fitting signal generated from antibodies binding to over-expressing cells over background fluorescence generated from HEK293 parental cells in Graphpad Prism (Graphpad Software).
# [2] = target: T2, mouse TREM2 over-expressed on Expi 293 …; test: flow cytometry on Expi 293 cells over-expressing mouse TREM2; Alexa Fluor 647 secondary antibody
# Description: as §1
binder,measurement,setting,value
"Rat IgG2B Clone #237920 (R&D Systems Cat #MAB17291) (antibody, V domains shown, also called mAb 237920) VH: EVQLVESGGGLVQPGRSLKLSCAASGFTFSNYYMAWVRQAPTKGLEWVASLTNSGGSTYYRDSVKGRFTLSRDNAKSTLYLQMDSLRSEDTATYYCTREWAGSGYFDYWGQGVMVTVSS VL: NIVMTQSPKSMSLSVGDRVTMNCKASQNVGNNLAWYQQKPGQSPKLLLYYTSNRFTGVPDRFTGGGYGTDFTLTINSVQAEDAAFYYCQRIYNSPWTFGGGTKLELKR",EC50,[1],0.6 nM
same,EC50,[2],0.9 nM
